Experimental data as given in US20050037420A1 (published 2005).
Numbering of substitutions follows the chain as printed.

T1: full-length NSM protein (putative movement protein of Tomato Spotted Wilt Virus) obtained from the IMPACT … (Tomato Spotted Wilt Virus, UniProt P36292 1-301)
T1 construct: mature; also called soluble NSM protein
T1 sequence (looked up): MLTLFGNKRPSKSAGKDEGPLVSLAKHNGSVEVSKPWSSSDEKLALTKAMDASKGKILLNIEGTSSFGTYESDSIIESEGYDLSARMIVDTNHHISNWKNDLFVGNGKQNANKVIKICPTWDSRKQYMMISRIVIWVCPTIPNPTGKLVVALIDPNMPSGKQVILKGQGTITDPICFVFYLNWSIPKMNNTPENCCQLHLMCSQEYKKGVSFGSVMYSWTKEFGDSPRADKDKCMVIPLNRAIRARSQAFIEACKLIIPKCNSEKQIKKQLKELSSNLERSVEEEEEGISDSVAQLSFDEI

B1: scFv N3 (scFv)
scFv: AVTLDESGGGLQTPGGGLSLVCKASGFSFSSYSMGWVRQAPGKGLEWVAGIGSSVIRTYYAPAVKGRATIPRDNGQSTVRLQLNDLRAEDTGTYYCAKESGSGKWFSIGQIDAWGHGTEVTVSSGSTSGSGKPGPGEGSTKGAPALTQPSSVSANPGGTVQITCSGGSGSYGWFQQKSPGSAPVTVIYSSDKRPSDIPSRFSGSKSGSTGTLTITGVQADDEAVYFCGSADSSHLGIFGAGTTLTVLGQP
notes: Soluble scFv, mini-scale (pHEN4II, c-myc tag) or large-scale (pTMZ1, IMAC purified) from E. coli; also called clone N3; not shown: C-terminal c-myc and his-6 tags from the expression vector
B2: scFv N10 (scFv)
scFv: B1 scFv with S170N
notes: Soluble scFv, mini-scale (pHEN4II, c-myc tag) or large-scale (pTMZ1, IMAC purified) from E. coli; also called clone N10; not shown: C-terminal c-myc and his-6 tags from the expression vector
B3: scFv N12 (scFv)
scFv: AVTLDESGGGLQTPGGGLSLVCKASGFDFSSYDMVWVRQAPGKGLEWVAGISSGSGPNYGAAVKGRATISRDNGQSTVRLQLNNLRAEDTATYYCAKNEGADWCGHYYCSVAYIDAWGHGTEVTVSSGSTSGSGKPGPGEGSTKGAPALTQPSSVSANPGETVKITCSGGSGDHYGWFQQKSPGSAPVTVIYNNDNRPSDIPSRFSGSKSGSTHTLTITGVQVEDEAVYFCGNRDSSAGIFGAGTTLTVLGQP
notes: Soluble scFv, mini-scale (pHEN4II, c-myc tag) or large-scale (pTMZ1, IMAC purified) from E. coli; also called clone N12; not shown: C-terminal c-myc and his-6 tags from the expression vector
B4: scFv N5 (scFv)
scFv: B3 scFv with G56V, N193K, D195E
notes: Soluble scFv, mini-scale (pHEN4II, c-myc tag) or large-scale (pTMZ1, IMAC purified) from E. coli; also called clone N5; not shown: C-terminal c-myc and his-6 tags from the expression vector

Target: T1, full-length NSM protein (putative …)
Test: ELISA, full-length NSM coated, mini-scale expressed soluble scFv; vector control OD 0.02
Source text: NSM-specific clones were identified by ELISA using mini-scale expressed soluble scFvs and full-length NSM protein for coating.

| Binder | OD410 nm |
| --- | --- |
| B1 | 0.2 OD |
| B2 | 0.2 OD |
| B3 | 0.2 OD |
| B4 | 0.2 OD |
